kcat and Vmax data for one protein are collected here from ChEMBL document CHEMBL1156528, “Acetyl-lysine analog peptides as mechanistic probes of protein deacetylases” (J Biol Chem, 2007).

Substrate in data set [1]: CC(=O)NCCCC[C@H](NC(=O)CNC(=O)CNC(=O)[C@@H](NC(=O)[C@H](CO)NC(=O)[C@@H](N)CCCCN)[C@@H](C)O)C(=O)N[C@@H](C)C(=O)N1CCC[C@H]1C(=O)N[C@@H](CCCNC(=N)N)C(=O)N[C@@H](CCCCN)C(=O)N[C@@H](CCC(N)=O)C(=O)O
Put plainly: (§1) Activity of Saccharomyces cerevisiae Hst2.

Substrate in data set [2]: C[C@H](NC(=O)[C@H](CCCCNC(N)=O)NC(=O)CNC(=O)CNC(=O)[C@@H](NC(=O)[C@H](CO)NC(=O)[C@@H](N)CCCCN)[C@@H](C)O)C(=O)N1CCC[C@H]1C(=O)N[C@@H](CCCNC(=N)N)C(=O)N[C@@H](CCCCN)C(=O)N[C@@H](CCC(N)=O)C(=O)O
The data set is described as §1.

B1: NAD-dependent protein deacetylase HST2 (Saccharomyces cerevisiae S288c), P53686 (protein)
chain: MSVSTASTEMSVRKIAAHMKSNPNAKVIFMVGAGISTSCGIPDFRSPGTGLYHNLARLKLPYPEAVFDVDFFQSDPLPFYTLAKELYPGNFRPSKFHYLLKLFQDKDVLKRVYTQNIDTLERQAGVKDDLIIEAHGSFAHCHCIGCGKVYPPQVFKSKLAEHPIKDFVKCDVCGELVKPAIVFFGEDLPDSFSETWLNDSEWLREKITTSGKHPQQPLVIVVGTSLAVYPFASLPEEIPRKVKRVLCNLETVGDFKANKRPTDLIVHQYSDEFAEQLVEELGWQEDFEKILTAQGGMGDNSKEQLLEIVHDLENLSLDQSEHESADKKDKKLQRLNGHDSDEDGASNSSSSQKAAKE
Regarding B1, the kcat in data set [1] is 0.2 s⁻¹; in data set [2], 1.2 ×10⁻² /s. The Vmax in data set [2] came out at 1.3 s⁻¹.
